Measured values taken from US20240327519A1 (Genentech, published 2024).

Columns and labels:
[1] = biological target: PD-1 (programmed cell death protein 1), as parameterised in the receptor occupancy model (UniProt Q15116 25-167, limits assumed); assay: assay not stated; parameter of the mPBPK tumor receptor occupancy model
[2] = biological target: T1, LAG3 (lymphocyte activation gene-3), as parameterised in the receptor occupancy model (UniProt P18627 23-450, limits assumed); assay: assay not stated; parameter of the mPBPK tumor receptor occupancy model; input parameter of the PK/receptor occupancy model; assay not stated
T1 construct: also called CD223
T1 sequence (looked up): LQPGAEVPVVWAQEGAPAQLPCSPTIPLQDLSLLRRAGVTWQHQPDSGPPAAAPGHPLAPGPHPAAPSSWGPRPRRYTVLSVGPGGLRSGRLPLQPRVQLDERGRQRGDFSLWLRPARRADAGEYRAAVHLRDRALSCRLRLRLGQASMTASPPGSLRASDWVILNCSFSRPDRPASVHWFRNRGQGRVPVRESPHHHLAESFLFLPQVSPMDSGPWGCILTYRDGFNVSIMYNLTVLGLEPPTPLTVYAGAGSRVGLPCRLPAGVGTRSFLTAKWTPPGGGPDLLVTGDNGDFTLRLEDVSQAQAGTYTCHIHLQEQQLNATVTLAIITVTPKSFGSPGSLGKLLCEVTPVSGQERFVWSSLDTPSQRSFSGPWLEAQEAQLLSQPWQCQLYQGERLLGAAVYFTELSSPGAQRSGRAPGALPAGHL

Chain of PD-1 (programmed cell death protein 1), as parameterised in the receptor occupancy model (Q15116 25-167 limits assumed): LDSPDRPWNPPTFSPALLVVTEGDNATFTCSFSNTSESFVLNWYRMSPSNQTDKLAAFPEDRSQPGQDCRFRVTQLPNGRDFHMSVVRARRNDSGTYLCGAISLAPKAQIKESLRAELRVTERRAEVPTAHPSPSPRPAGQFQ

- Kd [2]: 0.78 nM
B1: RO7247669 (PD1-LAG3), anti-PD-1/LAG3 bispecific antibody (bispecific antibody, human IgG1, kappa, L234A L235A)
heavy 1: not shown
light 1: EVQLLESGGGLVQPGGSLRLSCAASGFSFSSYTMSWVRQAPGKGLEWVATISGGGRDIYYPDSVKGRFTISRDNSKNTLYLQMNSLRAEDTAVYYCVLLTGRVYFALDSWGQGTLVTVSSASVAAPSVFIFPPSDEQLKSGTASVVCLLNNFYPREAKVQWKVDNALQSGNSQESVTEQDSKDSTYSLSSTLTLSKADYEKHKVYACEVTHQGLSSPVTKSFNRGEC
heavy 2: EVQLLESGGGLVQPGGSLRLSCAASGFIFDDYTMNWVRQAPGKGLEWVAVISWDGGGTYYTDSVKGRFTISRDDFKNTLYLQMNSLRAEDTAVYYCAKGLTDTTLYGSDYWGQGTLVTVSSASTKGPSVFPLAPSSKSTSGGTAALGCLVEDYFPEPVTVSWNSGALTSGVHTFPAVLQSSGLYSLSSVVTVPSSSLGTQTYICNVNHKPSNTKVDEKVEPKSCDKTHTCPPCPAPEAAGGPSVFLFPPKPKDTLMISRTPEVTCVVVDVSHEDPEVKFNWYVDGVEVHNAKTKPREEQYNSTYRVVSVLTVLHQDWLNGKEYKCKVSNKALGAPIEKTISKAKGQPREPQVCTLPPSRDELTKNQVSLSCAVKGFYPSDIAVEWESNGQPENNYKTTPPVLDSDGSFFLVSKLTVDKSRWQQGNVFSCSVMHEALHNHYTQKSLSLSPGK
light 2: not shown
notes: also called PD-1 BsAb; bsAb RO7247669
- Kd [1]: 0.25 nM
